Laboratory results as given in PMC4932547, “Improved Aptamers for the Diagnosis and Potential Treatment of HER2-Positive Cancer”.

Target: HER2 extracellular domain (UniProt P04626 23-652)
Experiment: SPRi; 5 mM Mg2+; negative aptamer spots subtracted; Selection buffer: 10 mM HEPES, 120 mM NaCl, 5 mM MgCl2, 5 mM KCl; pH not stated; SPRi temperature not stated (50 uL/min, 50 or 100 nM HER2, BSA-blocked chip); cell assays at 37 C
Conditions: protein: commercial

| Binder | Kd [nM] |
| --- | --- |
| TCTAAAAGGATTCTTCCCAAGGGGATCCAATTCAAACAGC (ssDNA, 5' hexyl-disulfide) [HeA2_3] | 6.2 |
| ATTAAGAACCATCACTCTTCCAAATGGATATACGACTGGG (ssDNA, 5' hexyl-disulfide) [HeA2_1] | 28.9 |
